From PMC6123492, “Structural and biochemical insights into small RNA 3′ end trimming by Arabidopsis SDN1”

How the values were obtained:
SDN1 wild type [1] = molecular target: T1, SDN1 wild type (Arabidopsis thaliana, UniProt A3KPE8 2-409); test: EMSA; no Mg2+; Kd,app in µM range, value only in figure; EMSA: 50 mM Tris pH 8.0, 100 mM NaCl, 1 mM DTT, no Mg2+, 2 nM RNA, on ice 30 min, 8% native PAGE in 0.5x TBE; NMR: 50 mM Na2HPO4 pH 7.4, 100 mM NaCl, 10% D2O; details: protein: recombinant; tags: His-SUMO tag removed; label: 5' 32P; single strand
T1 sequence: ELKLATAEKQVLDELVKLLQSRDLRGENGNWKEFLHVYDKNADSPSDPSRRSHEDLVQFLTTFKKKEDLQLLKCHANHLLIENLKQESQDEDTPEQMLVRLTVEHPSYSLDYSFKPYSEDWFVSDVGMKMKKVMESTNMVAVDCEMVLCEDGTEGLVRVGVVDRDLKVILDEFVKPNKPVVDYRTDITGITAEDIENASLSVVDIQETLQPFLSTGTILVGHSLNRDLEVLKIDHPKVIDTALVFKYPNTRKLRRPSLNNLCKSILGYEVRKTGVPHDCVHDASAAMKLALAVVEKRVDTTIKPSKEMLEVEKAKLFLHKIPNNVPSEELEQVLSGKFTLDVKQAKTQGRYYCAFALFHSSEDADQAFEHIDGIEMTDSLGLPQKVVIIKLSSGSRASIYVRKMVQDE

SDN1 wild type [2] = molecular target: T1, SDN1 wild type; test: UV crosslinking (5-iodoU, 312 nm); EMSA: 50 mM Tris pH 8.0, 100 mM NaCl, 1 mM DTT, no Mg2+, 2 nM RNA, on ice 30 min, 8% native PAGE in 0.5x TBE; NMR: 50 mM Na2HPO4 pH 7.4, 100 mM NaCl, 10% D2O; details: protein: recombinant, tags: His-SUMO tag removed
SDN1 ΔC = molecular target: T2, SDN1 ΔC (Arabidopsis thaliana, UniProt A3KPE8 2-302); test: as above; details: protein: recombinant, tags: His-SUMO tag removed
T2 sequence: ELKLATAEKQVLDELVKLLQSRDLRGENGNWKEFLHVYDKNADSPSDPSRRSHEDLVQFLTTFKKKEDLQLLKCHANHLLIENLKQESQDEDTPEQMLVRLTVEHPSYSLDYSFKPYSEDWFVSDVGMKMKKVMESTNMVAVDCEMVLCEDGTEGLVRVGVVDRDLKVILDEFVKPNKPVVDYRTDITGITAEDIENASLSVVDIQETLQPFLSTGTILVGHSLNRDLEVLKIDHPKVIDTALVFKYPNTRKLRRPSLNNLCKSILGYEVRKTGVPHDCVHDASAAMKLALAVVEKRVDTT

SDN1 RRM (NMR) = molecular target: T3, SDN1 RRM (NMR) (Arabidopsis thaliana, UniProt A3KPE8 305-409); test: NMR titration; EMSA: 50 mM Tris pH 8.0, 100 mM NaCl, 1 mM DTT, no Mg2+, 2 nM RNA, on ice 30 min, 8% native PAGE in 0.5x TBE; NMR: 50 mM Na2HPO4 pH 7.4, 100 mM NaCl, 10% D2O; details: protein: recombinant; tags: His-SUMO tag removed; 15N-labeled; single strand
T3 sequence: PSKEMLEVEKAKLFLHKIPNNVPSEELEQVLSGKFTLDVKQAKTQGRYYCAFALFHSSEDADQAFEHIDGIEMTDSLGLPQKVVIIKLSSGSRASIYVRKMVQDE

SDN1 wild type [3] = molecular target: T1, SDN1 wild type; test: crystal structure; 2 Mg2+; 9 of 10 nt seen, 2.8 Å; EMSA: 50 mM Tris pH 8.0, 100 mM NaCl, 1 mM DTT, no Mg2+, 2 nM RNA, on ice 30 min, 8% native PAGE in 0.5x TBE; NMR: 50 mM Na2HPO4 pH 7.4, 100 mM NaCl, 10% D2O; details: protein: recombinant; tags: His-SUMO tag removed; single strand
[4] = label: 5' 32P on target strand, unpaired miR166 3' end (T6-type), target 3' overhang 4 nt

B1: miR173 (22 nt RNA) (ssRNA)
RNA: UUCGCUUGCAGAGAGAAAUCAC
binding result (SDN1 wild type [1]): binds

B2: 3'-IUU RNA (ssRNA)
RNA: GAUUCCCUUGAAGCUUGGUCCGGAUUA
modifications: 5-iodoU at 25,26
binding result (SDN1 wild type [2]; label: 32P, single strand): binds | binding result (SDN1 ΔC; label: 32P, single strand): binds

B3: 5'-IUU RNA (ssRNA)
RNA: GAUUCCCUUGAAGCUUGGUCCGGAUUA
modifications: 5-iodoU at 3,4
binding result (SDN1 wild type [2]; label: 32P, single strand): binds

B4: M-IUU RNA (ssRNA)
RNA: GAUUCCCUUGAAGCUUGGUCCGGAUUA
modifications: 5-iodoU at 15,16
binding result (SDN1 wild type [2]; label: 32P, single strand): binds

B5: miR166:3'-IUU (dsRNA)
RNA 1: UCGGACCAGGCUUCAUCCCCC
RNA 2: GAUUCCCUUGAAGCUUGGUCCGGAUUA
modifications: 5-iodoU at 25,26 of strand 2
binding result (SDN1 wild type [2]; [4]): binds | binding result (SDN1 ΔC; [4]): binds

B6: 10 nt ssRNA (crystal, NMR) (ssRNA)
RNA: AGCCCAUUAG
binding result (SDN1 RRM (NMR)): binds | binding result (SDN1 wild type [3]): binds

B7: miR166:5'-IUU (dsRNA)
RNA 1: UCGGACCAGGCUUCAUCCCCC
RNA 2: GAUUCCCUUGAAGCUUGGUCCGGAUUA
modifications: 5-iodoU at 3,4 of strand 2
binding result (SDN1 wild type [2]; [4]): binds
